One block for each molecule: values may come before it.
Tests used:
[1] = tested on: GFP-14-3-3β and its binding proteins; assay: GFP-14-3-3β co-IP with LC-MS/MS label-free quantification, untreated versus PP1c-treated; set-up: species or system human; details: PP1 vs untreated; label-free quantification
[2] = tested on: GFP-14-3-3β; assay: GFP-14-3-3β co-IP with LC-MS/MS, untreated GFP-14-3-3β versus GFP control (14-3-3 interactome); assay type: binding, human; details: untreated vs GFP; label-free quantification

- Difference (log2), PP1 vs untreated [1]: 0.8713 log2
B1: U2SURP (protein, UniProt O15042 2-1029, looked up)
U2 snRNP-associated SURP …: ADKTPGGSQKASSKTRSSDVHSSGSSDAHMDASGPSDSDMPSRTRPKSPRKHNYRNESARESLCDSPHQNLSRPLLENKLKAFSIGKMSTAKRTLSKKEQEELKKKEDEKAAAEIYEEFLAAFEGSDGNKVKTFVRGGVVNAAKEEHETDEKRGKIYKPSSRFADQKNPPNQSSNERPPSLLVIETKKPPLKKGEKEKKKSNLELFKEELKQIQEERDERHKTKGRLSRFEPPQSDSDGQRRSMDAPSRRNRSSGVLDDYAPGSHDVGDPSTTNLYLGNINPQMNEEMLCQEFGRFGPLASVKIMWPRTDEERARERNCGFVAFMNRRDAERALKNLNGKMIMSFEMKLGWGKAVPIPPHPIYIPPSMMEHTLPPPPSGLPFNAQPRERLKNPNAPMLPPPKNKEDFEKTLSQAIVKVVIPTERNLLALIHRMIEFVVREGPMFEAMIMNREINNPMFRFLFENQTPAHVYYRWKLYSILQGDSPTKWRTEDFRMFKNGSFWRPPPLNPYLHGMSEEQETEAFVEEPSKKGALKEEQRDKLEEILRGLTPRKNDIGDAMVFCLNNAEAAEEIVDCITESLSILKTPLPKKIARLYLVSDVLYNSSAKVANASYYRKFFETKLCQIFSDLNATYRTIQGHLQSENFKQRVMTCFRAWEDWAIYPEPFLIKLQNIFLGLVNIIEEKETEDVPDDLDGAPIEEELDGAPLEDVDGIPIDATPIDDLDGVPIKSLDDDLDGVPLDATEDSKKNEPIFKVAPSKWEAVDESELEAQAVTTSKWELFDQHEESEEEENQNQEEESEDEEDTQSSKSEEHHLYSNPIKEEMTESKFSKYSEMSEEKRAKLREIELKVMKFQDELESGKRPKKPGQSFQEQVEHYRDKLLQREKEKELERERERDKKDKEKLESRSKDKKEKDECTPTRKERKRRHSTSPSPSRSSSGRRVKSPSPKSERSERSERSHKESSRSRSSHKDSPRDVSKKAKRSPSGSRTPKRSRRSRSRSPKKSGKKSRSQSRSPHRSHKKSKKNKH
- Difference (log2), untreated vs GFP [2]: 0.6 log2

- Difference (log2), PP1 vs untreated [1]: 0.9496 log2
B2: ALDH18A1 (protein, UniProt P54886 1-795, looked up)
Delta-1-pyrroline-5-carboxylat …: MLSQVYRCGFQPFNQHLLPWVKCTTVFRSHCIQPSVIRHVRSWSNIPFITVPLSRTHGKSFAHRSELKHAKRIVVKLGSAVVTRGDECGLALGRLASIVEQVSVLQNQGREMMLVTSGAVAFGKQRLRHEILLSQSVRQALHSGQNQLKEMAIPVLEARACAAAGQSGLMALYEAMFTQYSICAAQILVTNLDFHDEQKRRNLNGTLHELLRMNIVPIVNTNDAVVPPAEPNSDLQGVNVISVKDNDSLAARLAVEMKTDLLIVLSDVEGLFDSPPGSDDAKLIDIFYPGDQQSVTFGTKSRVGMGGMEAKVKAALWALQGGTSVVIANGTHPKVSGHVITDIVEGKKVGTFFSEVKPAGPTVEQQGEMARSGGRMLATLEPEQRAEIIHHLADLLTDQRDEILLANKKDLEEAEGRLAAPLLKRLSLSTSKLNSLAIGLRQIAASSQDSVGRVLRRTRIAKNLELEQVTVPIGVLLVIFESRPDCLPQVAALAIASGNGLLLKGGKEAAHSNRILHLLTQEALSIHGVKEAVQLVNTREEVEDLCRLDKMIDLIIPRGSSQLVRDIQKAAKGIPVMGHSEGICHMYVDSEASVDKVTRLVRDSKCEYPAACNALETLLIHRDLLRTPLFDQIIDMLRVEQVKIHAGPKFASYLTFSPSEVKSLRTEYGDLELCIEVVDNVQDAIDHIHKYGSSHTDVIVTEDENTAEFFLQHVDSACVFWNASTRFSDGYRFGLGAEVGISTSRIHARGPVGLEGLLTTKWLLRGKDHVVSDFSEHGSLKYLHENLPIPQRNTN
- Difference (log2), untreated vs GFP [2]: -0.8261 log2

- Difference (log2), PP1 vs untreated [1]: 0.9389 log2
B3: HACD3 (protein, UniProt Q9P035 1-362, looked up)
Very-long-chain …: MENQVLTPHVYWAQRHRELYLRVELSDVQNPAISITENVLHFKAQGHGAKGDNVYEFHLEFLDLVKPEPVYKLTQRQVNITVQKKVSQWWERLTKQEKRPLFLAPDFDRWLDESDAEMELRAKEEERLNKLRLESEGSPETLTNLRKGYLFMYNLVQFLGFSWIFVNLTVRFCILGKESFYDTFHTVADMMYFCQMLAVVETINAAIGVTTSPVLPSLIQLLGRNFILFIIFGTMEEMQNKAVVFFVFYLWSAIEIFRYSFYMLTCIDMDWKVLTWLRYTLWIPLYPLGCLAEAVSVIQSIPIFNETGRFSFTLPYPVKIKVRFSFFLQIYLIMIFLGLYINFRHLYKQRRRRYGQKKKKIH
- Difference (log2), untreated vs GFP [2]: -0.3489 log2

- Difference (log2), PP1 vs untreated [1]: 0.9262 log2
B4: VDAC2 (protein, UniProt P45880 2-294, looked up)
Non-selective voltage-gated …: ATHGQTCARPMCIPPSYADLGKAARDIFNKGFGFGLVKLDVKTKSCSGVEFSTSGSSNTDTGKVTGTLETKYKWCEYGLTFTEKWNTDNTLGTEIAIEDQICQGLKLTFDTTFSPNTGKKSGKIKSSYKRECINLGCDVDFDFAGPAIHGSAVFGYEGWLAGYQMTFDSAKSKLTRNNFAVGYRTGDFQLHTNVNDGTEFGGSIYQKVCEDLDTSVNLAWTSGTNCTRFGIAAKYQLDPTASISAKVNNSSLIGVGYTQTLRPGVKLTLSALVDGKSINAGGHKVGLALELEA
- Difference (log2), untreated vs GFP [2]: 2.092 log2

- Difference (log2), PP1 vs untreated [1]: 0.991 log2
B5: G3BP2 (protein, UniProt Q9UN86 2-482, looked up)
Ras GTPase-activating …: VMEKPSPLLVGREFVRQYYTLLNKAPEYLHRFYGRNSSYVHGGVDASGKPQEAVYGQNDIHHKVLSLNFSECHTKIRHVDAHATLSDGVVVQVMGLLSNSGQPERKFMQTFVLAPEGSVPNKFYVHNDMFRYEDEVFGDSEPELDEESEDEVEEEQEERQPSPEPVQENANSGYYEAHPVTNGIEEPLEESSHEPEPEPESETKTEELKPQVEEKNLEELEEKSTTPPPAEPVSLPQEPPKAFSWASVTSKNLPPSGTVSSSGIPPHVKAPVSQPRVEAKPEVQSQPPRVREQRPRERPGFPPRGPRPGRGDMEQNDSDNRRIIRYPDSHQLFVGNLPHDIDENELKEFFMSFGNVVELRINTKGVGGKLPNFGFVVFDDSEPVQRILIAKPIMFRGEVRLNVEEKKTRAARERETRGGGDDRRDIRRNDRGPGGPRGIVGGGMMRDRDGRGPPPRGGMAQKLGSGRGTGQMEGRFTGQRR
- Difference (log2), untreated vs GFP [2]: 0.002451 log2

- Difference (log2), PP1 vs untreated [1]: 0.9083 log2
B6: SRPR (protein, UniProt P08240 1-638, looked up)
Signal recognition particle …: MLDFFTIFSKGGLVLWCFQGVSDSCTGPVNALIRSVLLQERGGNNSFTHEALTLKYKLDNQFELVFVVGFQKILTLTYVDKLIDDVHRLFRDKYRTEIQQQSALSLLNGTFDFQNDFLRLLREAEESSKIRAPTTMKKFEDSEKAKKPVRSMIETRGEKPKEKAKNSKKKGAKKEGSDGPLATSKPVPAEKSGLPVGPENGVELSKEELIRRKREEFIQKHGRGMEKSNKSTKSDAPKEKGKKAPRVWELGGCANKEVLDYSTPTTNGTPEAALSEDINLIRGTGSGGQLQDLDCSSSDDEGAAQNSTKPSATKGTLGGMFGMLKGLVGSKSLSREDMESVLDKMRDHLIAKNVAADIAVQLCESVANKLEGKVMGTFSTVTSTVKQALQESLVQILQPQRRVDMLRDIMDAQRRQRPYVVTFCGVNGVGKSTNLAKISFWLLENGFSVLIAACDTFRAGAVEQLRTHTRRLSALHPPEKHGGRTMVQLFEKGYGKDAAGIAMEAIAFARNQGFDVVLVDTAGRMQDNAPLMTALAKLITVNTPDLVLFVGEALVGNEAVDQLVKFNRALADHSMAQTPRLIDGIVLTKFDTIDDKVGAAISMTYITSKPIVFVGTGQTYCDLRSLNAKAVVAALMKA
- Difference (log2), untreated vs GFP [2]: -0.7055 log2

- Difference (log2), PP1 vs untreated [1]: 0.9597 log2
B7: ABCG2 (protein, UniProt Q9UNQ0 1-655, looked up)
Broad substrate specificity …: MSSSNVEVFIPVSQGNTNGFPATASNDLKAFTEGAVLSFHNICYRVKLKSGFLPCRKPVEKEILSNINGIMKPGLNAILGPTGGGKSSLLDVLAARKDPSGLSGDVLINGAPRPANFKCNSGYVVQDDVVMGTLTVRENLQFSAALRLATTMTNHEKNERINRVIQELGLDKVADSKVGTQFIRGVSGGERKRTSIGMELITDPSILFLDEPTTGLDSSTANAVLLLLKRMSKQGRTIIFSIHQPRYSIFKLFDSLTLLASGRLMFHGPAQEALGYFESAGYHCEAYNNPADFFLDIINGDSTAVALNREEDFKATEIIEPSKQDKPLIEKLAEIYVNSSFYKETKAELHQLSGGEKKKKITVFKEISYTTSFCHQLRWVSKRSFKNLLGNPQASIAQIIVTVVLGLVIGAIYFGLKNDSTGIQNRAGVLFFLTTNQCFSSVSAVELFVVEKKLFIHEYISGYYRVSSYFLGKLLSDLLPMRMLPSIIFTCIVYFMLGLKPKADAFFVMMFTLMMVAYSASSMALAIAAGQSVVSVATLLMTICFVFMMIFSGLLVNLTTIASWLSWLQYFSIPRYGFTALQHNEFLGQNFCPGLNATGNNPCNYATCTGEEYLVKQGIDLSPWGLWKNHVALACMIVIFLTIAYLKLLFLKKYS
- Difference (log2), untreated vs GFP [2]: -0.7786 log2

- Difference (log2), PP1 vs untreated [1]: 0.9341 log2
B8: TOMM22 (protein, UniProt Q9NS69 2-142, looked up)
Mitochondrial import receptor …: AAAVAAAGAGEPQSPDELLPKGDAEKPEEELEEDDDEELDETLSERLWGLTEMFPERVRSAAGATFDLSLFVAQKMYRFSRAALWIGTTSFMILVLPVVFETEKLQMEQQQQLQQRQILLGPNTGLSGGMPGALPSLPGKI
- Difference (log2), untreated vs GFP [2]: -0.3585 log2

- Difference (log2), PP1 vs untreated [1]: 0.8935 log2
B9: TMCO1 (protein, UniProt Q9UM00 1-239, looked up)
Calcium load-activated …: MPRKRKCDLRAVRVGLLLGGGGVYGSRFRFTFPGCRALSPWRVRVQRRRCEMSTMFADTLLIVFISVCTALLAEGITWVLVYRTDKYKRLKAEVEKQSKKLEKKKETITESAGRQQKKKIERQEEKLKNNNRDLSMVRMKSMFAIGFCFTALMGMFNSIFDGRVVAKLPFTPLSYIQGLSHRNLLGDDTTDCSFIFLYILCTMSIRQNIQKILGLAPSRAATKQAGGFLGPPPPSGKFS
- Difference (log2), untreated vs GFP [2]: 2.261 log2

- Difference (log2), PP1 vs untreated [1]: 0.914 log2
B10: DPM1 (protein, UniProt O60762 2-260, looked up)
Dolichol-phosphate …: ASLEVSRSPRRSRRELEVRSPRQNKYSVLLPTYNERENLPLIVWLLVKSFSESGINYEIIIIDDGSPDGTRDVAEQLEKIYGSDRILLRPREKKLGLGTAYIHGMKHATGNYIIIMDADLSHHPKFIPEFIRKQKEGNFDIVSGTRYKGNGGVYGWDLKRKIISRGANFLTQILLRPGASDLTGSFRLYRKEVLEKLIEKCVSKGYVFQMEMIVRARQLNYTIGEVPISFVDRVYGESKLGGNEIVSFLKGLLTLFATT
- Difference (log2), untreated vs GFP [2]: 1.004 log2
